Data from the supplement of paper PMC10567573.

B1: OAS1 (parent)
chain: YIGTHEYPHFSHRPSTLQAASTPQ
B2: FBXO34 (parent)
chain: ASSVESTLPVLEASSWKKQVSHDF

Variants of: B1
Assay: protein stability index of a GFP-peptide fusion (GPS, HEK-293T) (PSI 1-6); higher = more stable
Conditions: c terminus: a fixed tail appended
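Note: lentivirally expressed fusions sorted by FACS into six bins by GFP to DsRed ratio, PSI derived from sequencing read proportions per bin multiplied by bin number.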

Q: Which protein stability index does the source give for YIGTHEYPHFSHRPSTFQAASTPQ [L17F] here?
A: 1.83

Q: With YIGTHEYPHPSHRPSTLQAASTPQ [F10P] as the variant, how does the protein stability index read?
A: 2.06

Q: With YIGTHEYPHFSHRPSTLQAKSTPQ [A20K] as the variant, how does the protein stability index read?
A: 2.17

Q: Which protein stability index does the source give for YIGTHEYPAFSHRPSTLQAASTPQ [H9A] here?
A: 1.87

Q: Which protein stability index does the source give for YIGTHEYPHFSHRPSMLQAASTPQ [T16M] here?
A: 1.42

Q: With YISTHEYPHFSHRPSTLQAASTPQ [G3S] as the variant, how does the protein stability index read?
A: 2.03

Q: For YIGTHEYPHHSHRPSTLQAASTPQ [F10H], which protein stability index is on record?
A: 2.56

Q: Which protein stability index does the source give for YICTHEYPHFSHRPSTLQAASTPQ [G3C] here?
A: 1.97

Q: For YIGMHEYPHFSHRPSTLQAASTPQ [T4M], which protein stability index is on record?
A: 2.15

Q: With YIGTHEYPHFSHRPRTLQAASTPQ [S15R] as the variant, how does the protein stability index read?
A: 1.96

Q: For YIGTHEYPHFSHRPSSLQAASTPQ [T16S], which protein stability index is on record?
A: 2.34

Q: Which protein stability index does the source give for YIGTHEYPHFSHRPSTLQAASVPQ [T22V] here?
A: 1.93

Q: With YIGTHEYPHFSHRPSTLQAASTPL [Q24L] as the variant, how does the protein stability index read?
A: 2.29

Q: For YIGTHEYPHFSHRPSTLQAAMTPQ [S21M], which protein stability index is on record?
A: 1.94

Q: For YIGTHEYPHFSHRPSTLQAASTPM [Q24M], which protein stability index is on record?
A: 1.87

Q: For YIGTHEYDHFSHRPSTLQAASTPQ [P8D], which protein stability index is on record?
A: 2.35

Q: For YIGTHEYPHFSHRPSTLRAASTPQ [Q18R], which protein stability index is on record?
A: 1.95

Q: With YIGTHEYPHFSHRESTLQAASTPQ [P14E] as the variant, how does the protein stability index read?
A: 2.17

Q: With YIGTHEYPHFSHWPSTLQAASTPQ [R13W] as the variant, how does the protein stability index read?
A: 3.13

Q: Which protein stability index does the source give for HIGTHEYPHFSHRPSTLQAASTPQ [Y1H] here?
A: 3.64

Q: For YIGTHEYPHFSHRPSTLQAASTPN [Q24N], which protein stability index is on record?
A: 2.07

Q: For YCGTHEYPHFSHRPSTLQAASTPQ [I2C], which protein stability index is on record?
A: 1.87

Q: For YIGTHEYPHFSHRPVTLQAASTPQ [S15V], which protein stability index is on record?
A: 2

Q: For YGGTHEYPHFSHRPSTLQAASTPQ [I2G], which protein stability index is on record?
A: 3.15

Q: With YIGTDEYPHFSHRPSTLQAASTPQ [H5D] as the variant, how does the protein stability index read?
A: 2.52

Q: Which protein stability index does the source give for YIGTHEYPHFYHRPSTLQAASTPQ [S11Y] here?
A: 3.04

Q: Which protein stability index does the source give for YIGTHENPHFSHRPSTLQAASTPQ [Y7N] here?
A: 2.15

Q: With YIGTHEYPHFSHRPSTLLAASTPQ [Q18L] as the variant, how does the protein stability index read?
A: 2.08

Q: With YIGTHEYPHFSHRPSTLQAASWPQ [T22W] as the variant, how does the protein stability index read?
A: 1.53

Q: For YIGTHEYPHFSHGPSTLQAASTPQ [R13G], which protein stability index is on record?
A: 1.92

Q: With YIGTHEYPHFSHRPSPLQAASTPQ [T16P] as the variant, how does the protein stability index read?
A: 2.14

Q: Which protein stability index does the source give for YIGTHEYPHFSHRPSTLQAFSTPQ [A20F] here?
A: 1.73

Q: Which protein stability index does the source give for YIGTHEYPHFSHRPSTLQAGSTPQ [A20G] here?
A: 1.88

Q: With YIGTHEYPHFSHRPSTLQASSTPQ [A20S] as the variant, how does the protein stability index read?
A: 2.11

Q: Which protein stability index does the source give for YIGTHEYPHFSKRPSTLQAASTPQ [H12K] here?
A: 2.07

Q: Which protein stability index does the source give for YIGTHEYPHFSHRPSKLQAASTPQ [T16K] here?
A: 2.08

Q: Which protein stability index does the source give for YIGTHEMPHFSHRPSTLQAASTPQ [Y7M] here?
A: 2.37

Q: With YIETHEYPHFSHRPSTLQAASTPQ [G3E] as the variant, how does the protein stability index read?
A: 1.8

Q: With YIGTHFYPHFSHRPSTLQAASTPQ [E6F] as the variant, how does the protein stability index read?
A: 3.8

Q: Which protein stability index does the source give for YIGTHEYPHFSHRPSTHQAASTPQ [L17H] here?
A: 1.93

Q: Which protein stability index does the source give for YIGTHEYVHFSHRPSTLQAASTPQ [P8V] here?
A: 2

Q: For YIGDHEYPHFSHRPSTLQAASTPQ [T4D], which protein stability index is on record?
A: 2.56

Q: Which protein stability index does the source give for YIGTHEYPHFSHRPSTSQAASTPQ [L17S] here?
A: 2.12

Q: With YIGTHEYPHFSHRPGTLQAASTPQ [S15G] as the variant, how does the protein stability index read?
A: 1.79

Q: Which protein stability index does the source give for YIGTHEYPHFSHRPSTLQAASNPQ [T22N] here?
A: 2.1

Variants of: B2
Assay: as above
Conditions: c terminus: a fixed tail appended

Q: With CSSVESTLPVLEASSWKKQVSHDF [A1C] as the variant, how does the protein stability index read?
A: 2.1

Q: With DSSVESTLPVLEASSWKKQVSHDF [A1D] as the variant, how does the protein stability index read?
A: 3.32

Q: For ESSVESTLPVLEASSWKKQVSHDF [A1E], which protein stability index is on record?
A: 2.83

Q: Which protein stability index does the source give for FSSVESTLPVLEASSWKKQVSHDF [A1F] here?
A: 2.11

Q: Which protein stability index does the source give for GSSVESTLPVLEASSWKKQVSHDF [A1G] here?
A: 2.99

Q: For ISSVESTLPVLEASSWKKQVSHDF [A1I], which protein stability index is on record?
A: 1.95

Q: With KSSVESTLPVLEASSWKKQVSHDF [A1K] as the variant, how does the protein stability index read?
A: 2.1

Q: With LSSVESTLPVLEASSWKKQVSHDF [A1L] as the variant, how does the protein stability index read?
A: 3.35

Q: Which protein stability index does the source give for MSSVESTLPVLEASSWKKQVSHDF [A1M] here?
A: 2.71

Q: For NSSVESTLPVLEASSWKKQVSHDF [A1N], which protein stability index is on record?
A: 2.9

Q: With PSSVESTLPVLEASSWKKQVSHDF [A1P] as the variant, how does the protein stability index read?
A: 2.64

Q: With QSSVESTLPVLEASSWKKQVSHDF [A1Q] as the variant, how does the protein stability index read?
A: 2.44

Q: Which protein stability index does the source give for RSSVESTLPVLEASSWKKQVSHDF [A1R] here?
A: 2.97

Q: For SSSVESTLPVLEASSWKKQVSHDF [A1S], which protein stability index is on record?
A: 3.36

Q: Which protein stability index does the source give for TSSVESTLPVLEASSWKKQVSHDF [A1T] here?
A: 2.79

Q: For VSSVESTLPVLEASSWKKQVSHDF [A1V], which protein stability index is on record?
A: 2.27

Q: For YSSVESTLPVLEASSWKKQVSHDF [A1Y], which protein stability index is on record?
A: 1.78

Q: With AASVESTLPVLEASSWKKQVSHDF [S2A] as the variant, how does the protein stability index read?
A: 2.81

Q: With ACSVESTLPVLEASSWKKQVSHDF [S2C] as the variant, how does the protein stability index read?
A: 1.85

Q: With ADSVESTLPVLEASSWKKQVSHDF [S2D] as the variant, how does the protein stability index read?
A: 3.18

Q: With AESVESTLPVLEASSWKKQVSHDF [S2E] as the variant, how does the protein stability index read?
A: 3.94

Q: With AFSVESTLPVLEASSWKKQVSHDF [S2F] as the variant, how does the protein stability index read?
A: 1.92

Q: With AGSVESTLPVLEASSWKKQVSHDF [S2G] as the variant, how does the protein stability index read?
A: 2.81

Q: With AHSVESTLPVLEASSWKKQVSHDF [S2H] as the variant, how does the protein stability index read?
A: 2.4

Q: For AISVESTLPVLEASSWKKQVSHDF [S2I], which protein stability index is on record?
A: 2.26

Q: With AKSVESTLPVLEASSWKKQVSHDF [S2K] as the variant, how does the protein stability index read?
A: 3.04

Q: Which protein stability index does the source give for ALSVESTLPVLEASSWKKQVSHDF [S2L] here?
A: 1.47

Q: For ANSVESTLPVLEASSWKKQVSHDF [S2N], which protein stability index is on record?
A: 2.58

Q: For APSVESTLPVLEASSWKKQVSHDF [S2P], which protein stability index is on record?
A: 3.46

Q: For AQSVESTLPVLEASSWKKQVSHDF [S2Q], which protein stability index is on record?
A: 3.09

Q: For ARSVESTLPVLEASSWKKQVSHDF [S2R], which protein stability index is on record?
A: 2.8

Q: With ATSVESTLPVLEASSWKKQVSHDF [S2T] as the variant, how does the protein stability index read?
A: 3.39

Q: With AVSVESTLPVLEASSWKKQVSHDF [S2V] as the variant, how does the protein stability index read?
A: 2.92

Q: For AWSVESTLPVLEASSWKKQVSHDF [S2W], which protein stability index is on record?
A: 2.56

Q: For AYSVESTLPVLEASSWKKQVSHDF [S2Y], which protein stability index is on record?
A: 2.28

Q: With ASAVESTLPVLEASSWKKQVSHDF [S3A] as the variant, how does the protein stability index read?
A: 1.86

Q: With ASCVESTLPVLEASSWKKQVSHDF [S3C] as the variant, how does the protein stability index read?
A: 2.19

Q: For ASDVESTLPVLEASSWKKQVSHDF [S3D], which protein stability index is on record?
A: 3.29

Q: With ASEVESTLPVLEASSWKKQVSHDF [S3E] as the variant, how does the protein stability index read?
A: 3.72

Q: For ASFVESTLPVLEASSWKKQVSHDF [S3F], which protein stability index is on record?
A: 2.38

Q: With ASGVESTLPVLEASSWKKQVSHDF [S3G] as the variant, how does the protein stability index read?
A: 3.27

Q: Which protein stability index does the source give for ASHVESTLPVLEASSWKKQVSHDF [S3H] here?
A: 3.38

Q: Which protein stability index does the source give for ASIVESTLPVLEASSWKKQVSHDF [S3I] here?
A: 2.69

Q: With ASKVESTLPVLEASSWKKQVSHDF [S3K] as the variant, how does the protein stability index read?
A: 2.56

Q: For ASLVESTLPVLEASSWKKQVSHDF [S3L], which protein stability index is on record?
A: 2.62

Q: For ASMVESTLPVLEASSWKKQVSHDF [S3M], which protein stability index is on record?
A: 2.63

Q: For ASNVESTLPVLEASSWKKQVSHDF [S3N], which protein stability index is on record?
A: 3.07

Q: For ASPVESTLPVLEASSWKKQVSHDF [S3P], which protein stability index is on record?
A: 3.31

Q: With ASQVESTLPVLEASSWKKQVSHDF [S3Q] as the variant, how does the protein stability index read?
A: 2.88
